Assay results as given in patent US20180195056.

B1: xlAtg4B^25-345 (protein)
chain: PVWVLGRKYSALTEKEQLLNDITSRLWFTYRRNFQAIGGTGPTSDTGWGCMLRCGQMIFAQALICRHVGRDWRWDKQKPKGEYLNILTAFLDKKDSYYSIHQIAQMGVGEGKYIGQWYGPNTVAQVLRKLAVFDQWSSIAVHIAMDNTVVVDEIRRLCRAGSGESSDAGALSNGYTGDSDPSCAQWKPLVLLIPLRLGLSEINEAYIETLKHCFMVPQSLGVIGGRPNSAHYFIGYVGDELIYLDPHTTQLSVEPSDCSFIEDESFHCQHPPCRMHVSEIDPSIAVGFFCSSQEDFEDWCQHIKKLSLSGGALPMFEVVDQ
B2: xlAtg4B^25-384 (protein)
chain: PVWVLGRKYSALTEKEQLLNDITSRLWFTYRRNFQAIGGTGPTSDTGWGCMLRCGQMIFAQALICRHVGRDWRWDKQKPKGEYLNILTAFLDKKDSYYSIHQIAQMGVGEGKYIGQWYGPNTVAQVLRKLAVFDQWSSIAVHIAMDNTVVVDEIRRLCRAGSGESSDAGALSNGYTGDSDPSCAQWKPLVLLIPLRLGLSEINEAYIETLKHCFMVPQSLGVIGGRPNSAHYFIGYVGDELIYLDPHTTQLSVEPSDCSFIEDESFHCQHPPCRMHVSEIDPSIAVGFFCSSQEDFEDWCQHIKKLSLSGGALPMFEVVDQLPLHLSNPDVLNLTPDSSDADRLDRFFDSEDEEFEILSL
B3: full-length xlAtg4B (Xenopus laevis Atg4B, residues 1-384) (protein)
chain: MDAATLTYDTLRFADTPDFPETAEPVWVLGRKYSALTEKEQLLNDITSRLWFTYRRNFQAIGGTGPTSDTGWGCMLRCGQMIFAQALICRHVGRDWRWDKQKPKGEYLNILTAFLDKKDSYYSIHQIAQMGVGEGKYIGQWYGPNTVAQVLRKLAVFDQWSSIAVHIAMDNTVVVDEIRRLCRAGSGESSDAGALSNGYTGDSDPSCAQWKPLVLLIPLRLGLSEINEAYIETLKHCFMVPQSLGVIGGRPNSAHYFIGYVGDELIYLDPHTTQLSVEPSDCSFIEDESFHCQHPPCRMHVSEIDPSIAVGFFCSSQEDFEDWCQHIKKLSLSGGALPMFEVVDQLPLHLSNPDVLNLTPDSSDADRLDRFFDSEDEEFEILSL
B4: xlAtg4B^14-384 (protein)
chain: ADTPDFPETAEPVWVLGRKYSALTEKEQLLNDITSRLWFTYRRNFQAIGGTGPTSDTGWGCMLRCGQMIFAQALICRHVGRDWRWDKQKPKGEYLNILTAFLDKKDSYYSIHQIAQMGVGEGKYIGQWYGPNTVAQVLRKLAVFDQWSSIAVHIAMDNTVVVDEIRRLCRAGSGESSDAGALSNGYTGDSDPSCAQWKPLVLLIPLRLGLSEINEAYIETLKHCFMVPQSLGVIGGRPNSAHYFIGYVGDELIYLDPHTTQLSVEPSDCSFIEDESFHCQHPPCRMHVSEIDPSIAVGFFCSSQEDFEDWCQHIKKLSLSGGALPMFEVVDQLPLHLSNPDVLNLTPDSSDADRLDRFFDSEDEEFEILSL

Columns and labels:
[1] = biological target: His14-xlGATE16-MBP
[2] = biological target: His14-xlLC3B-MBP

Row | Protein | cleavage efficiency at limiting substrate concentration (constant protease:substrate ratio 1:2000, 1 h, 0° C.) [1] | percent of a 6600-fold substrate excess cleaved in 1 h at 37° C. [1] | protease concentration needed to cleave 100 µM substrate within 2 h at 0° C. [1] | protease required for substrate processing at 0° C., against the other protease fragments [1] | protease required for substrate processing at 25° C., against the other protease fragments [1] | salt sensitivity of substrate cleavage (500 nM protease, 1 h, 0° C.) [1] | cleavage efficiency at limiting substrate concentration (constant protease:substrate ratio 1:1000, 1 h, 0° C.) [2] | protease concentration sufficient to cleave 100 µM substrate within 1 h at 0° C. [2] | salt sensitivity of substrate cleavage (500 nM protease, 1 h, 0° C.) [2] | temperature dependence of substrate cleavage [2] | time for efficient cleavage (>95%) at 500 nM protease, 0° C., against full-length or N-terminally truncated enzymes [2] | substrate excess cleaved to near completion within 1 h at 25° C. [1] | substrate excess cleaved to near completion within 1 h at 37° C. [2] | temperature needed for near-complete cleavage of a 6600-fold substrate excess in 1 h [1] | substrate cleavage (20 µM protease, 100 µM substrate, 3 h, 25° C.) [2]
1 | B1 | Even more drastic effects were observed when cleaving xlGATE16-MBP with xlAtg4B^25-345 (FIG. 6A, right lower panel). Here, processing was poor even at 300 µM substrate concentration | could only cleave ≈30-4 0% of a 6600-fold substrate excess even at 37 °C | 500 nM of xlAtg4B^25-345 were insufficient to cleave 100 µM of xlGATE16 substrate within 2 h at 0 °C | ≈10-fold and ≈30-fold more xlAtg4B^25-345 was required for xlGATE16 processing as compared to the other protease fragments at 0 °C and 25° C., respectively | ≈10-fold and ≈30-fold more xlAtg4B^25-345 was required for xlGATE16 processing as compared to the other protease fragments at 0 °C and 25° C., respectively | The weak activity of xlAtg4B^25-345 on xlGATE16 was further reduced at salt concentrations ≥0.5 M | the C-terminally truncated protease showed significantly reduced cleavage already at 100-30 µM substrate concentration | 1 µM of each protease fragment was sufficient to cleave 100 µM of substrate within 1 h | Deletion of the protease's C-terminus, however, rendered the reaction salt sensitive at NaCl concentrations ≥0.5 M | The boost of xlLC3B substrate processing at higher temperatures, however, was much weaker for this protease fragment | efficient cleavage (i.e. >95% cleavage) of the xlLC3B substrate required twice as long when using xlAtg4B^25-345 instead of the full-length or just N-terminally truncated xlAtg4B enzymes |  |  |  | 
2 | B2 |  |  |  |  |  | also full-length or N-terminally truncated xlAtg4B fragments showed a reduced cleavage activity at ≥1 M NaCl | full-length xlAtg4B and both N-terminally shortened fragments could cleave the xlLC3B substrate rather efficiently even at substrate concentrations as low as 3-10 µM | 1 µM of each protease fragment was sufficient to cleave 100 µM of substrate within 1 h | xlLC3B processing by full-length xlAtg4B or its N-terminally truncated fragments was remarkably insensitive towards NaCl concentrations up to 1.5 M |  |  | near-complete cleavage of a 6600-fold substrate excess was reached for the two N-terminally shortened protease fragments already at 25 °C | Within 1 h at 37° C., all three enzymes were able to cleave a >3000-fold excess of the xlLC3B substrate to near completion |  | 
3 | B3 |  |  |  |  |  | also full-length or N-terminally truncated xlAtg4B fragments showed a reduced cleavage activity at ≥1 M NaCl | full-length xlAtg4B and both N-terminally shortened fragments could cleave the xlLC3B substrate rather efficiently even at substrate concentrations as low as 3-10 µM | 1 µM of each protease fragment was sufficient to cleave 100 µM of substrate within 1 h | xlLC3B processing by full-length xlAtg4B or its N-terminally truncated fragments was remarkably insensitive towards NaCl concentrations up to 1.5 M |  |  |  | Within 1 h at 37° C., all three enzymes were able to cleave a >3000-fold excess of the xlLC3B substrate to near completion | the full-length enzyme required 37 °C for a similarly efficient cleavage | 
4 | B4 |  |  |  |  |  | also full-length or N-terminally truncated xlAtg4B fragments showed a reduced cleavage activity at ≥1 M NaCl | full-length xlAtg4B and both N-terminally shortened fragments could cleave the xlLC3B substrate rather efficiently even at substrate concentrations as low as 3-10 µM | 1 µM of each protease fragment was sufficient to cleave 100 µM of substrate within 1 h | xlLC3B processing by full-length xlAtg4B or its N-terminally truncated fragments was remarkably insensitive towards NaCl concentrations up to 1.5 M |  |  | near-complete cleavage of a 6600-fold substrate excess was reached for the two N-terminally shortened protease fragments already at 25 °C | Within 1 h at 37° C., all three enzymes were able to cleave a >3000-fold excess of the xlLC3B substrate to near completion |  | xlLC3B was nearly exclusively recognized by xlAtg4B^14-384
